The test concerns RD29B-LUC expression. Nature of the test: Reconstituted ABA signaling pathway, transient expression in wild-type (Col-0) protoplasts. It is filed as cell-based, Arabidopsis. The note with it: for ABA-dependent induction of RD29B-LUC expression: co-transfected with ABI1, SnRK2.6 and ABF2, without or with 5 μM ABA, 4.5 h; for RD29B-LUC expression: SnRK2.6 and ABF2; for level of inhibition by PYL13 of the other PYL's activity: 2×PYL13 plasmid, ABI1, SnRK2.6, ABF2 co-expressed. Here is the method: To test whether PYL13 can act as an ABA receptor, the ABA signaling pathway in wild-type protoplasts was reconstituted. Turning now to FIG. 1, wild-type (Col-0) protoplasts were used in both panels A and B. After transfection, the protoplasts were incubated for 4.5 hours under light in the absence of ABA (open bars) or in the presence of 5 μM ABA (closed bars). Error bars indicate s.e.m. (n=3). […] ZmUBQ-GUS was used as the internal control. […] Instead, the ABA signaling pathway was reconstituted by co-expression of PYLs, ABI1, SnRK2.6, and ABF2. […] Therefore, the response of other members of the PYL family would not predict the response of PYL13 expression or over-expression in plants.
PYL13 interacts with all clade A PP2Cs tested but binds most strongly to PP2CA. To investigate whether PYL13 inhibits PP2Cs in planta, PYL13 was co-expressed with all clade A PP2Cs in wild-type protoplasts, as shown in FIG. 4. Transfections of all PP2Cs together with SnRK2.6 and ABF2 inhibited RD29B-LUC expression to different degrees, see FIG. 4A, and the degree of inhibition was correlated with the intensity of interaction between PP2Cs and SnRK2.6 (Fujii et al., 2009). […] The ABA signaling pathway was reconstituted by co-expression of PYLs, PP2Cs, SnRK2.6, and ABF2. RD29B-LUC was used as the ABA-responsive reporter. ZmUBQ-GUS was used as the internal control. After transfection, protoplasts were incubated for 4.5 h under light in the absence of ABA (open bars) or in the presence of 5 μM ABA (closed bars). Error bars indicate s.e.m. (n=9).
To investigate the physiological significance of the binding between PYL13 and PYLs in vivo, PYL13 was co-expressed with one of the other PYLs, ABI1, SnRK2.6, and ABF2 in wild-type protoplasts. When the transfected PYL13 plasmid was 2-fold of that of the other PYLs, co-transfections with PYL13 decreased the activity of the ABA-responsive PYLs (FIG. 5E). […] ZmUBQ-GUS was used as the internal control. After transfection, protoplasts were incubated for 4.5 h under light in the absence of ABA (open bars) or in the presence of 5 μM ABA (closed bars). Error bars indicate s.e.m. (n=3).
The ABA signaling pathway was reconstituted by co-expression of PYL13, PYLs, ABI1, SnRK2.6, and ABF2. […] Error bars indicate s.e.m. (n=3). […] Without wishing to be bound by theory, PYL13 inhibition of other PYLs might result from direct interactions between PYL13 and other PYLs or from competition for the binding sites on PP2Cs.
Assays for transient expression in protoplasts were performed as described (Fujii et al., 2009). Leaf strips (0.5 mm) were cut from the middle part of second leaves using a razor blade (VWR SCIENTIFIC) and submerged in 15 mL of enzyme solution containing 20 mM MES, pH 5.7, 1.5% (w/v) cellulase R10 (YAKULT PHARMACEUTICAL INDUSTRY), 0.4% (w/v) macerozyme R10 (YAKULT PHARMACEUTICAL INDUSTRY), 0.4 M mannitol, 20 mM KCl, 10 mM CaCl2, 1 mM 2-mercaptoethanol, and 0.1% BSA. The leaves were vacuum infiltrated for 30 min and then incubated without shaking for 3 h in the dark at room temperature. The enzyme/protoplast solution was diluted with 15 mL of W5 solution (2 mM MES, pH 5.7, 154 mM NaCl, 125 mM CaCl2, and 5 mM KCl) and filtered with a 75-μm nylon mesh. Protoplasts were centrifuged at 100 g for 2 min in a 30-mL round-bottomed tube (SARSTEDT), resuspended in W5 solution, and rested for 30 min at room temperature.
Before transfection, protoplasts were changed into MMg solution (4 mM MES, pH 5.7, 0.4 M mannitol, and 15 mM MgCl2) to a final concentration of 2×10^5 cells per microliter. Protoplasts (100 μl) were gently and thoroughly mixed with the plasmid DNA mixture (less than 10 μl) and 110 μl of PEG solution (40% w/v PEG-4000, 0.2 M mannitol, and 100 mM CaCl2), incubated for 5 min, washed with 440 μl of W5 solution, and resuspended in 50 μl of WI solution (4 mM MES, pH 5.7, 0.5 M mannitol, and 20 mM KCl). After transfection, protoplasts were incubated in WI solution without ABA or with 5 μM ABA under light. […]

“Also recorded” adds a separate entry of the source.

For “PYL2: Arabidopsis thaliana PYL family ABA receptor protein PYL2, AT2G26040”, the “ABA-dependent induction of RD29B-LUC expression” value is “enabled the expression; also recorded: restored RD29B-LUC expression”.

B1: PYL13: Arabidopsis thaliana PYR/PYL/RCAR family protein PYL13, SEQ ID NO: 1 (protein, listed as Arabidopsis thaliana)
chain: MESSKQKRCRSSVVETIEAPLPLVWSILRSFDKPQAYQRFVKSCTMRSGGGGGKGGEGKGSVRDVTLVSGFPADFSTERLEELDDESHVMVVSIIGGNHRLVNYKSKTKVVASPEDMAKKTVVVESYVVDVPEGTSEEDTIFFVDNIIRYNLTSLAKLTKKMMK
Regarding B1, the “ABA-dependent induction of RD29B-LUC expression” value is listed as “did not enable the expression”. Besides, the RD29B-LUC expression entry (co-transfection with ABI1, ABI2, HAB1, HAB2, or AHG1) is given as “did not enable RD29B-LUC expression”. Besides, the RD29B-LUC expression result (co-transfection with PP2CA, HAI2, or HAI3) is “enabled the ABA-dependent induction”. In addition, where the note is “with PYL1”, the “level of inhibition by PYL13 of the other PYL's activity” value is listed as 67%. Where the note is “with PYL2”, the “level of inhibition by PYL13 of the other PYL's activity” value was 27%.
